Results taken from patent publication US20040115734A1 (VLAAMS INTERUNIVERSITAIR INSTITUUT VOOR BIOTECHNOLOGIE VZW, published 2004).

Key:
GST-TLN/256C = molecular target: T1, GST-TLN/256C (mouse, UniProt Q60625 662-917); experiment: GST pull-down from 1% Triton-X100 or 2% CHAPS mouse brain extracts, western blot
T1 construct: Immobilized on glutathione beads; not shown: glutathione S-transferase (GST) encoded by vector pGEX4T-1 (Pharmacia Biotech)
T1 sequence (looked up): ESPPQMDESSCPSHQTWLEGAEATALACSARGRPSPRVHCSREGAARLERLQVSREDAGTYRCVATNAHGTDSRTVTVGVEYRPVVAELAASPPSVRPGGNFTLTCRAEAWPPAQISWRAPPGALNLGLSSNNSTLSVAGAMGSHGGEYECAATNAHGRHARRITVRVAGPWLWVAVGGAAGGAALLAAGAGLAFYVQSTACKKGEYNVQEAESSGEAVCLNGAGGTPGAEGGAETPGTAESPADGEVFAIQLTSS
Procedure: GST alone was used as a negative control. PS1-CTF was predominantly detected in the bound fraction of low salt 1% Triton-X100 brain extracts. […] The difference between the intensity of the bands is due to different affinities of the pabs as shown for the crude extract (“Total” in first lane). Binding was largely abolished at high salt concentrations (400 mM).
Murine cortices were homogenized in 250 mM sucrose containing 10 mM Tris-HCL pH 7.4, 1 mM EDTA (De Strooper et al., 1999). Nuclei and tissue fragments were removed by low speed centrifugation. Microsomal membranes pelleted by high-speed centrifugation (50K rpm, 1 hour) were resuspended in LSB containing 1% Triton X-100 or 2% CHAPS. Aliquots (1 mg/ml) of the cleared extracts (55K rpm, 1 hour) were incubated overnight (4° C.) with immobilized GST fusion proteins. Beads were washed in low salt extraction buffer containing 0.5% Triton X-100 and bound proteins were analyzed by SDS-PAGE and western blotting.

[1] = molecular target: T2, TLN/256C clone of the pAD-GAL4 mouse hippocampal two-hybrid library (mouse, UniProt Q60625 662-917); experiment: yeast two-hybrid screen, His+ selection and β-galactosidase filter lift
T2 sequence (looked up): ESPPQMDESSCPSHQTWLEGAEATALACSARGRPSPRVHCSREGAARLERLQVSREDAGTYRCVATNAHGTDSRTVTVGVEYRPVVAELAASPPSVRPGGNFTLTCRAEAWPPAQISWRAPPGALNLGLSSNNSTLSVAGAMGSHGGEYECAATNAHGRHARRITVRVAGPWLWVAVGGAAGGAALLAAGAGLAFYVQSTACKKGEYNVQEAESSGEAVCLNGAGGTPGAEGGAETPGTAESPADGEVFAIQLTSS
From the text: Endogenous TLN could be precipitated from Triton X-100 brain extracts using recombinant GST fusion proteins containing the 39 C-terminal residues of PS1 or PS2 (PS1/39C, FIG. 1, Part B). The binding was salt dependent (FIG. 1, Part C). […] We detected a weak signal for endogenous holo-APP only after long exposure (FIG. 1, Part D). […] Although the PS1-NTF/ CTF is Triton-X100 sensitive, minor amounts of PS1-NTF were also detected in precipitates of Triton-X100-extracted membranes. In the presence of 2% CHAPS however, both PS1-NTF and PS1-CTF were recovered on the beads as both fragments remain non-covalently bound under these conditions (Capell et al., 1998). […] Since CHAPS is less denaturing than TX100, it is possible that other proteins of the complex cause steric hindrance under these conditions (Capell et al., 1998).
Mouse hippocampal mRNA was used to generate a primary lambda library that was converted to a pAD-GAL4 plasmid library by in vivo mass excision (HybriZAP, Stratagene). The sequence coding for the C-terminal eight amino acids of PS1 was cloned into the pBD-GAL4 vector. Yeast was transformed simultaneously with the bait and the library plasmids using the lithium-acetate method (Gietz et al., 1995). His⁺ colonies were restreaked onto selection agar plates and assayed for lacZ gene expression by the β-galactosidase filter lift assay.

GST-PS1/1-81N [2] = molecular target: T3, GST-PS1/1-81N (UniProt P49768 1-81); experiment: GST pull-down of in vitro translated [35S]-labeled TLN constructs, autoradiogram
T3 construct: range 1-81; Lacks the first transmembrane domain of PS1; also called PS1 N-terminus fused to GST; GST-fused with the N-terminus of PS1; not shown: glutathione S-transferase (GST) encoded by vector pGEX4T-1 (Pharmacia Biotech)
Procedure: (§1) Part C. Total: autoradiogram of the translated, [³⁵S]-methionine labeled TLN constructs used for the binding reaction. Similar amounts of input material are used. Note the tendency of the intracellular domain (IC) to oligomerize.
(§2) Part D. Mapping of the binding domain of TLN. […] Radiolabeled translated products (Total) were assayed for binding to GST-PS1/39C (third panel), GST-PS1/1-81N (fourth panel) or GST alone (not shown). Binding becomes virtually abolished when the N-terminal 5 amino acids (Val⁸²⁹-Trp⁸³³) of the transmembrane region of TLN are deleted (construct 8 in top panel).

GST alone [3] = molecular target: T4, GST alone (UniProt P08515 1-218 = GST); experiment: as above
T4 construct: Negative control, immobilized on glutathione beads; also called GST-beads
Procedure: as §1, §2

GST alone [4] = molecular target: T4, GST alone; experiment: GST pull-down of [35S]-labeled C-terminal APP-stubs expressed in neurons; data not shown
GST-PS1/1-81N [5] = molecular target: T3, GST-PS1/1-81N; experiment: GST pull-down of [35S]-labeled C-terminal APP-stubs expressed in neurons

T4 sequence (P08515 whole entry): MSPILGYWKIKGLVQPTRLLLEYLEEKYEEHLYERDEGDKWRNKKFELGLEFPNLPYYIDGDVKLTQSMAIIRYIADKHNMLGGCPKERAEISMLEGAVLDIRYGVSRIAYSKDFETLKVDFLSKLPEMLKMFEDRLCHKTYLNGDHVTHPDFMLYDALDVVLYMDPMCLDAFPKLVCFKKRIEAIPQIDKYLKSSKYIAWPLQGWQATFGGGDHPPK

B1: ductin (endogenous, mouse brain extract) (other, UniProt P63082 1-155, looked up)
chain: MADIKNNPEYSSFFGVMGASSAMVFSAMGAAYGTAKSGTGIAAMSVMRPELIMKSIIPVVMAGIIAIYGLVVAVLIANSLTDGITLYRSFLQLGAGLSVGLSGLAAGFAIGIVGDAGVRGTAQQPRLFVGMILILIFAEVLGLYGLIVALILSTK
binding result (GST-TLN/256C): no binding

B2: PS1-C8 bait (C-terminal eight amino acids of PS1 in pBD-GAL4) (other, UniProt P04386 1-147, looked up)
chain: MKLLSSIEQACDICRLKKLKCSKEKPKCAKCLKNNWECRYSPKTKRSPLTRAHLTEVESRLERLEQLFLLIFPREDLDMILKMDSLQDIKALLTGLFVQDNVNKDAVTDRLASVETDMPLTLRQHRISATSSSEESSNKGQRQLTVSLAFHQFYI
binding result [1]: binds

B3: intracellular domain (IC) of TLN (in vitro translated) (other, mouse, UniProt Q60625 855-917, looked up)
chain: AFYVQSTACKKGEYNVQEAESSGEAVCLNGAGGTPGAEGGAETPGTAESPADGEVFAIQLTSS
notes: domain: intracellular domain (IC); also called IC domain of TLN
binding result (GST-PS1/1-81N [2]): no binding
binding result (GST alone [3]): no binding

B4: APP-C59 (other, UniProt P05067 712-770, looked up)
chain: IATVIVITLVMLKKKQYTSIHHGVVEVDAAVTPEERHLSKMQQNGYENPTYKFFEQMQN
notes: domain: γ40-cleaved C-terminal fragment (APP-C59); also called γ40-cleaved cytoplasmic domain of APP
binding result (GST alone [4]): no binding
binding result (GST-PS1/1-81N [5]): no binding

B5: BAP31 (endogenous, mouse brain extract) (other, UniProt Q61335 2-245, looked up)
chain: SLQWTTVATFLYAEVFAVLLLCIPFISPKRWQKVFKSRLVELVVTYGNTFFVVLIVILVLLVIDAVREILKYDDVTEKVNLQNNPGAMEHFHMKLFRAQRNLYIAGFSLLLSFLLRRLVTLISQQATLLASNEAFKKQAESASEAAKKYMEENDQLKKGAAEDGDKLDIGNTEMKLEENKSLKNDLRKLKDELASTKKKLEKAENEALAMQKQSEGLTKEYDRLLEEHAKLQASVRGPSVKKEE
binding result (GST-TLN/256C): no binding
